In article PMC2886958 (The Journal of General Virology, 2008) one finds Kd data, which are given here for one molecule.

The assay deals with ACE-2–GFP, secreted form of angiotensin converting enzyme-2 fused to green fluorescent protein (UniProt Q9BYF1). The assay is described as follows: SPR; format not told in the text (Supplementary Fig. S2). A general note: In SPR one partner is held on a chip, and binding of the other changes the refractive index at the surface.
Sequence of ACE-2–GFP, secreted form of angiotensin converting enzyme-2 fused to green fluorescent protein (Q9BYF1 18-740): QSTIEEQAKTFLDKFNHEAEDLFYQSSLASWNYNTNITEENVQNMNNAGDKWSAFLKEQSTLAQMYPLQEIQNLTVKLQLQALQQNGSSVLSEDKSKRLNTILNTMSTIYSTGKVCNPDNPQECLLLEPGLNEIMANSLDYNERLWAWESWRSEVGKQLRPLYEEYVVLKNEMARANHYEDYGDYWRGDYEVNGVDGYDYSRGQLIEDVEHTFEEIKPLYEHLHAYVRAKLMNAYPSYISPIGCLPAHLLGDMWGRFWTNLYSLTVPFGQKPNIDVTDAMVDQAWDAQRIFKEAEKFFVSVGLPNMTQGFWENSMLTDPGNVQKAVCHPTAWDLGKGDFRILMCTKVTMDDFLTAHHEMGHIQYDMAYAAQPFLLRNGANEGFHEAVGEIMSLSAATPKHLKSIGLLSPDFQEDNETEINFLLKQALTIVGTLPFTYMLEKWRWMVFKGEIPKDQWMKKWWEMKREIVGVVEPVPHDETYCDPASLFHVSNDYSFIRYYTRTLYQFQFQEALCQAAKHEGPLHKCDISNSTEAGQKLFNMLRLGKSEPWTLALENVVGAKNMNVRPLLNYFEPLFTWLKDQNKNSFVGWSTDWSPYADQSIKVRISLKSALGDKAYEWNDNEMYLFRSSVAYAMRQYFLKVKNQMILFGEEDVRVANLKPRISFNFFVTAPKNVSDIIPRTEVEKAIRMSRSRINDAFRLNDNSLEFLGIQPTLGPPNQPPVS

B1: SARS-CoV S1 (residues 19–713), Fc-tagged fusion protein (Fc fusion)
chain: not shown
What is called Kd is the free concentration of one partner at which half of the binding sites on the other are occupied at equilibrium, for simple one-to-one binding. In turn, B1 returned a Kd of 87.1 nM.
